Reference: article PMC12218379 (Scientific Reports, 2025)

Molecular target: the molecule itself
Test: SEC-MALS

B1: SsRidA (SSA_0809), reactive intermediate deaminase A homolog from Streptococcus sanguinis (enzyme, UniProt A3CM35 1-126, looked up)
chain: MAKTIHTDKAPAAIGPYVQGKIVGNLLFASGQIPLSPETGEIIGTTIEEQTQQVLKNVSAILEAAGTDFDHVVKATCFLSDINDFVAFNEVYKTAFTEAFPARSAVEVARLPKDVKIEIEVIAEIL
  stoichiometry N: 3
